# Measurements: US20220202901A1, “PEPTIDES IN COMBINATION WITH IMMUNE CHECKPOINT INHIBITORS FOR USE IN TREATMENT OF CANCER” (WNTRESEARCH AB, priority 2019, published 2022)
# Columns and labels:
# SKBR3 cells = test: Functional immune response assay: PBMC cytotoxicity against SKBR3 cells; type: cell-based; details: SKBR3, relative to vehicle control
# Procedure: (§1) Purpose: Examining the cytotoxic effect of Foxy-5 and an anti-PD-L1 antibody alone or in combination in a functional immune response assay with different breast cancer cell lines.
# (§2) Peripheral blood mononuclear cells (PBMCs) were isolated from whole blood using Ficoll Paque based density centrifugation.
# (§3) SKBR3 (low in PD L1, denoted PD L1+) or HCC1954 (high in PD L1, denoted PD L1+++) cells were stained with 0.1 mM CFSE.
# (§4) Effector cells (EC), i.e. PMMCs and target cells (TC), i.e. SKBR3 or HCC1954 cells, respectively, were brought to a concentration of 2×10^5 cells/ml.
# (§5) Cells were treated with and without Foxy5 (100 μM), the cells were also treated with and without pembrolizumab […].
# (§6) Cells were plated at EC:TC ratios of 1:1 (first bar), 5:1 (second bar) and 10:1 (third bar) along with basal cell death controls and total cell death controls. Once plated, cells were spun down and incubated for 12 hours. After 12 hours cells were re suspended with 5 μg/ml 7AAD. Cells were then analysed on the Guava flow cytometer.
# (§7) Based on staining patterns live/dead cell and immune/cancer cell differentiation can be determined and the direct cytotoxicity in terms of the cell death percentage was calculated.
# Direct cytotoxicity elicited by PBMCs against the SKBR3 cell line in the presence of FOXY-5 and/or pembrolizumab relative to vehicle control. […]
# HCC1954 cells = test: Functional immune response assay: PBMC cytotoxicity against HCC1954 cells; type: cell-based
# Procedure: as §1, §2, §3, §4, §5, §6, §7
# Direct cytotoxicity elicited by PBMCs against the HCC1954 cell line in the presence of FOXY-5 and/or pembrolizumab relative to vehicle control. […]
substance,measurement,setting,value
Pembrolizumab,trastuzumab mediated ADCC,SKBR3 cells; EC:TC 10:1 and 5:1 ratios,decreased
same,direct PBMC cytotoxicity,SKBR3 cells; EC:TC 10:1 ratio,increased
same,direct PBMC cytotoxicity,"HCC1954 cells; HCC1954 (PD L1 high), relative to vehicle control, EC:TC 5:1 and 10:1 ratios",increased
same,direct cytotoxicity,"HCC1954 cells; HCC1954, pembrolizumab added to Foxy-5 vs. single agent, ratios 1:1 and 10:1",increased
